According to US20250042968A1 (UNIVERSITY OF MIAMI, published 2025):

Target: T1, EphA2 (UniProt P29317 25-534, limits assumed)
T1 construct: also called EphA2 receptor
Test: biolayer interferometry (ForteBio Octet)

T1 sequence (P29317 25-534 limits assumed): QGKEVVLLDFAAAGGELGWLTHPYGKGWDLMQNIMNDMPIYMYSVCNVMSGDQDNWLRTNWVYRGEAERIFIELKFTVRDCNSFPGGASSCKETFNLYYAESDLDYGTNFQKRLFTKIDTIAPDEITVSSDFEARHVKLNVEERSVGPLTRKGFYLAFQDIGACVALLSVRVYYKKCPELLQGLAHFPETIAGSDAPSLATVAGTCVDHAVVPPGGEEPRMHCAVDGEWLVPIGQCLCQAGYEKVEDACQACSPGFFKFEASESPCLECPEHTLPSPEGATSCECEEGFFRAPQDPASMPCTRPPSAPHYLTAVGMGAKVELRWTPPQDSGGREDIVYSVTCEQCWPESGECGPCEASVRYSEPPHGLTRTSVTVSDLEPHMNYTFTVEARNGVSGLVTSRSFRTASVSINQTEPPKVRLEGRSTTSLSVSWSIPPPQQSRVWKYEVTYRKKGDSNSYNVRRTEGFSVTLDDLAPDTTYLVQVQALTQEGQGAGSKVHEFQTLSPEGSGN

binding result: no binding
B1: SNEW (peptide)
peptide: SNEWIQPRLPQH
notes: Known EphB2 targeting peptide, tested alongside the xEFN peptides as a comparator
